Target: T1, synthetic LEAP2 peptide (mature peptide of human LEAP2) (human)
T1 peptide: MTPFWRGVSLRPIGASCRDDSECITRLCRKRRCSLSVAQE
Assay: cell-based or functional assay

| Binder | EC50 of blocking LEAP2 inhibition of GHSR activity (antibody mixed with LEAP2, antagonist format, GHSR-stable cell line) [nM] |
| --- | --- |
| anti-LEAP2 monoclonal antibody M1/M2 (antibody, V domains shown) VH: EVQLQQSGTVLARPGASVKMSCKASGYTFTSYWMHWVKQRPGQGLEWIGAIYPGNSDTSYKQKFKGKAKLTAVTSASTVYMELSSLTDEDSAVYYCTYGKEEYLFAMDYWGQGTSVTVSS VL: not shown | 170 |
| anti-LEAP2 monoclonal antibody M18 (antibody, V domains shown) VH: EIQLQQSGPELMKPGASVKISCKASGYSFTNYYIHWVKQSHGKSLEWIGYIDPFNGGTNYNQKFKGKATLTVDKSSSTAYMHLSSLTFEDSAVYYCARRGYYYGFTYWGQGTLVTVSA VL: DIVLTQSPASLAVSLGQRATISCKASQSVDYDGDSYMNWYQQKPGQPPKLLIYTASNLESGIPARFSGSGSGTDFTLNIHPVEEEDAATYYCQQSNEDPYTFGGGTKLEIK | 680 |
